From PMC7695694, “Yeast Nup84-Nup133 complex structure details flexibility and reveals conservation of the membrane anchoring ALPS motif” (Nature Communications, 2020) come the findings set out here.

Holding throughout (details): both partners purified
Assay [1] addresses T1, Nup133 N-terminal domain (Nup133NTD, residues 55-481, S. cerevisiae) (S. cerevisiae, UniProt P36161).
T1 construct: Nup133, S. cerevisiae, N-terminal beta-propeller domain, residues 55-481; The 6xHis tag is 3C cleavable; also called scNup133NTD; WT-Nup133NTD; source: E. coli LOBSTR-RIL(DE3), purified (Ni Sepharose, Superdex 75)
Description: crystal structure; Nup133NTD-VHH-SAN4, 2.1 Å, molecular replacement; crystals at 18 °C, PEG 3,350, ammonium sulfate, Bis-Tris/HCl pH 5.5.

Assay [2] addresses T2, Nup84 (full-length, S. cerevisiae) (S. cerevisiae, UniProt P52891).
T2 construct: Nup84, S. cerevisiae, full length; The N-terminal 10xHis-8xArg-SUMO tag is 3C cleavable; also called scNup84
Description: crystal structure; Nup84-Nup133CTD-VHH-SAN8, 6.4 Å, SAD with a [TeW6O24]6- derivative; crystals at 18 °C, PEG 8,000, ethylene glycol, imidazole/MES pH 6.5.

For assay [3], the target named is T3, Nup84-Nup133CTD heterodimeric complex (S. cerevisiae) (Saccharomyces cerevisiae (strain ATCC …, UniProt P52891;P36161)).
T3 construct: Nup84, S. cerevisiae, full length; source: E. coli LOBSTR-RIL(DE3), co-expressed from a bicistronic vector, purified (Ni Sepharose, SP Sepharose, Superdex 200)
T3 sequence (P52891 whole entry, chain 1 of 2): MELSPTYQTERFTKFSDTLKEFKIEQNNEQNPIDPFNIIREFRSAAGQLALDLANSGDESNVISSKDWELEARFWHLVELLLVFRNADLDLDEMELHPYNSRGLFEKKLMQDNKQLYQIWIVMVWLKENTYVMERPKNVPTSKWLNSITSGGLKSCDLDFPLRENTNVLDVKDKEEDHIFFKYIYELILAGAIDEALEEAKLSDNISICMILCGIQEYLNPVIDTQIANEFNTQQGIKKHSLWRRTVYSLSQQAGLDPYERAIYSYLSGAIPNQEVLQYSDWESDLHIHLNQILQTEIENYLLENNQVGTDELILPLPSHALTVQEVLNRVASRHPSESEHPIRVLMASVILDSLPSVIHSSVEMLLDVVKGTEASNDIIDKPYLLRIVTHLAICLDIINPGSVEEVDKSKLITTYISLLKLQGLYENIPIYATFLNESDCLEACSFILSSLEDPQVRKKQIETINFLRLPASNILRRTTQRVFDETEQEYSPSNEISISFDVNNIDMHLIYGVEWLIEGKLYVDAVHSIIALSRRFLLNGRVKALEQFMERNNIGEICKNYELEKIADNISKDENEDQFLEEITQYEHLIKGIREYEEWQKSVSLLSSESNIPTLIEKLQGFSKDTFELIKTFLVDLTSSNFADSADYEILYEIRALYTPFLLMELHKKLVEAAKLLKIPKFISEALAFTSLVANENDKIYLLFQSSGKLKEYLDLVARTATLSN
T3 sequence (P36161 521-1157, chain 2 of 2): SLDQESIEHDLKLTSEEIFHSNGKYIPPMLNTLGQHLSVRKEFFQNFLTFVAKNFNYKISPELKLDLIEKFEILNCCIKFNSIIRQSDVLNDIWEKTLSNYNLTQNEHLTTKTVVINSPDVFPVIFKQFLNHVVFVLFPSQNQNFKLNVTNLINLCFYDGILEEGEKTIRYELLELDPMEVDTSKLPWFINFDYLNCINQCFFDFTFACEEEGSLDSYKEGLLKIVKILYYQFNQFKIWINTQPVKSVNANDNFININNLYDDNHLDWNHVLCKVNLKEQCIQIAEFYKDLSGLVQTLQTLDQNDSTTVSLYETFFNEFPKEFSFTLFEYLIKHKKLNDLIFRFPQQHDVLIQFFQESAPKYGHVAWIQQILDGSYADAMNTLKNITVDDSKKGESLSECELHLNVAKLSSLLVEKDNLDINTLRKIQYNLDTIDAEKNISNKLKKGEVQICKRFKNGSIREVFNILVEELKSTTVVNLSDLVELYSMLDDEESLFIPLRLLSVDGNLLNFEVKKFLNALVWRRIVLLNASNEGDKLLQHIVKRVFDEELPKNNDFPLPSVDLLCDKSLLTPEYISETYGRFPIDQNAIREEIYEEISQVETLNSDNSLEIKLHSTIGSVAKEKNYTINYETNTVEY
The description is as above.

For assay [4], the target named is T2, Nup84 (full-length, S. cerevisiae). Description: crystal structure; Nup84-Nup133CTD with VHH-SAN8 and VHH-SAN9, 7.4 Å; crystallised under the same conditions and in the same crystal form as the VHH-SAN8 complex.
For assay [5], the target named is T3, Nup84-Nup133CTD heterodimeric complex …. Described as above.
Assay [6] deals with T1, Nup133 N-terminal domain (Nup133NTD, …). Description: crystal structure; Nup133NTD-VHH-SAN5, molecular replacement; six copies in the asymmetric unit; crystals at 18 °C, PEG MME 2,000, potassium chloride, Tris/HCl pH 8.0.

T1 sequence (P36161 55-481): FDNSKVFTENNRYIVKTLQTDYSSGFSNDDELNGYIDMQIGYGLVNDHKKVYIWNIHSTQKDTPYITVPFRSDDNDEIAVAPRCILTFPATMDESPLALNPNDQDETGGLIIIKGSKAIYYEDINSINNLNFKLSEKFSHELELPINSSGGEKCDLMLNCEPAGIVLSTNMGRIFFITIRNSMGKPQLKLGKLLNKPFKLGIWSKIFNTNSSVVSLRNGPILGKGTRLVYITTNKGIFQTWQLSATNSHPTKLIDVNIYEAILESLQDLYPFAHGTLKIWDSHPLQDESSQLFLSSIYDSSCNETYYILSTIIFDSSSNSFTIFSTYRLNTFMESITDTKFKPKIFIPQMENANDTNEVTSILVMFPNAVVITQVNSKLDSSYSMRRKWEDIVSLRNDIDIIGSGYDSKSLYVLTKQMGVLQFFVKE
T2 sequence (P52891 whole entry): as the sequence (P52891 whole entry, chain 1 of 2) above

B1: VHH-SAN4 (VHH)
VHH: QLQLVESGGGSVQAGGSLTLSCTASESISKRIHGIGWFRQRRGEQREEIAYITTGGRPNLGDSVKDRFTISRDKSNGTVYLQMNSLKPEDTAVYYCHGRGRWWGTEGRLDYWGQGTQVTVSS
notes: structure with this nanobody deposited as PDB 6X05; also called nanobody VHH-SAN4; source: E. coli LOBSTR-RIL(DE3), purified (Ni Sepharose, tag cut with bdSENP1, Superdex 75); not shown: 14xHis, N-terminal, cleaved; bdSUMO, N-terminal, cleaved
For B1, the binding result in assay [1] is recorded as “binds”.

B2: VHH-SAN8 (VHH)
VHH: QLQLVETGGGLVQAGGSLRLSCVASGRTFTSYAMGWFRQAPGKEREFVAAISRLASGTDYADSVKGRFTISRNNDKNTVYLQMNNLIPEDTAVYYCAALQALRFSLPIAMATMKNGRADSWGQGTQVTVSS
notes: structures with this nanobody deposited as PDB 6X02 and 6X03 (modelled as a generic nanobody without CDRs); Selected by phage display from an alpaca immunised with the full-length Y complex, panned against Nup84; also called VHH8; nanobody VHH-SAN8; source: E. coli LOBSTR-RIL(DE3), purified (Ni Sepharose, tag cut with bdSENP1, Superdex 75); not shown: 14xHis, N-terminal, cleaved; bdSUMO, …
Regarding B2, the binding result in assay [2] and in assay [3] was “binds” in each case.

B3: VHH-SAN9 (VHH)
VHH: QVQLVESGGGSVQAGGSLRLSCAVSGGTLSTLAMGWFRQAPGQEREFVARIGWTNGDTGYADSVKGRFTISRDNVKNTVYLQMNNLKPEDTALYYCATRRPYGSTLYPPNTESAHDNWGQGTQVTVSS
notes: structure with this nanobody deposited as PDB 6X03 (modelled as a generic nanobody without CDRs); also called VHH9; nanobody VHH-SAN9; source: E. coli LOBSTR-RIL(DE3), purified (Ni Sepharose, tag cut with bdSENP1, Superdex 75); not shown: 14xHis, N-terminal, cleaved; bdSUMO, N-terminal, cleaved
B3: the binding result in assay [4] and in assay [5] was “binds” each time.

B4: VHH-SAN5 (VHH)
VHH: QVQLVESGGGLVQAGGSLRLSCAASGSIGSLDAMAWYRRAPGKQRERVASISRYGTYYVDSVKGRFTISRDNAKNTVYLQMNSLKPEDTGVYYCKGVMEVGGVIDEYWGQGTQVTVSS
notes: structure with this nanobody deposited as PDB 6X04; also called nanobody VHH-SAN5; source: E. coli LOBSTR-RIL(DE3), purified (Ni Sepharose, tag cut with bdSENP1, Superdex 75); not shown: 14xHis, N-terminal, cleaved; bdSUMO, N-terminal, cleaved
With B4, the binding result in assay [6] is on record as “binds”.
